Data published in publication PMC12102438.

molecular target: KHK4083; test: BLI; details: 100 nmol/L KHK4083; parent: est. 1.0; read off a plot

Row | Substance | ratio to parent
1 | Recombinant OX40-His protein (human OX40) (from UniProt P43489) S38A | 1
2 | Recombinant OX40-His protein (human OX40) (from UniProt P43489) D34A | 0.8
3 | Recombinant OX40-His protein (human OX40) (from UniProt P43489) S118A | 6.4
4 | Recombinant OX40-His protein (human OX40) (from UniProt P43489) K120A | 16
5 | Recombinant OX40-His protein (human OX40) (from UniProt P43489) D117A | 28
6 | Recombinant OX40-His protein (human OX40) (from UniProt P43489) T35A | 0.6
7 | Recombinant OX40-His protein (human OX40) (from UniProt P43489) Y36A | 1.6

The remaining lines, values ahead:

Row | ratio to parent | Substance
8 | 15 | Recombinant OX40-His protein (human OX40) (from UniProt P43489) K82A
9 | 2 | Recombinant OX40-His protein (human OX40) (from UniProt P43489) D40A
10 | 21 | Recombinant OX40-His protein (human OX40) (from UniProt P43489) Y119A
11 | 0.6 | Recombinant OX40-His protein (human OX40) (from UniProt P43489) H30A
